Changes are numbered by the printed parent chain.
Experiments:
WRKY2:HIS [1] = biological target: T1, WRKY2:HIS (Arabidopsis thaliana (Col), UniProt Q9FG77 1-687); assay: EMSA
WRKY10:MYC [2] = biological target: T2, WRKY10:MYC (Arabidopsis thaliana (Col), UniProt Q9LG05 1-485); assay: EMSA
CCA1:MBP [3] = biological target: T3, CCA1:MBP (Arabidopsis thaliana, UniProt P92973 1-608); assay: EMSA
LHY:MBP;WRKY2:HIS = LHY:MBP;WRKY2:HIS (Arabidopsis thaliana;Arabidopsis …, UniProt Q6R0H1;Q9FG77 1-645;1-687, |); assay: EMSA
LHY:MBP;WRKY2:HIS, sequence (Q9FG77 whole entry, one chain of several): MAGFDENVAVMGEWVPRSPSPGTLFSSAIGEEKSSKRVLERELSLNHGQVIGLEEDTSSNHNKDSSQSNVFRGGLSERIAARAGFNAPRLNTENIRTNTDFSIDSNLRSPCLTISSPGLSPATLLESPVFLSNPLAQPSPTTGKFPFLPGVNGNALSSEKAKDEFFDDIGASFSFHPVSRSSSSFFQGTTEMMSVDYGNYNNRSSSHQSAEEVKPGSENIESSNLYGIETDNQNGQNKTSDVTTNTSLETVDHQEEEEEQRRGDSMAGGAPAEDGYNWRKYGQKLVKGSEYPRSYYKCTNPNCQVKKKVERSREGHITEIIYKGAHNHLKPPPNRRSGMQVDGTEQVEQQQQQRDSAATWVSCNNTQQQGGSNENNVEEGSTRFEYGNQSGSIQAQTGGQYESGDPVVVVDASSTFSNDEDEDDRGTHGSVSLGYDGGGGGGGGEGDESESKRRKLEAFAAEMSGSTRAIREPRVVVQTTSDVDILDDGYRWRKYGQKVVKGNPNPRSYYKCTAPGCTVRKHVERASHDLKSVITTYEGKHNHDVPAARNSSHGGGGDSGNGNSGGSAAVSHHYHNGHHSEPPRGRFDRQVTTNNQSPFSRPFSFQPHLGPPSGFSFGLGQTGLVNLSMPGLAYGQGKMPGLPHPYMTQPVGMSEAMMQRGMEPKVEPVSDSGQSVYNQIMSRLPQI
LHY:MBP;WRKY10:MYC = LHY:MBP;WRKY10:MYC (Arabidopsis thaliana;Arabidopsis …, UniProt Q6R0H1;Q9LG05 1-645;1-485, |); assay: EMSA
LHY:MBP;WRKY10:MYC, sequence (Q9LG05 whole entry, one chain of several): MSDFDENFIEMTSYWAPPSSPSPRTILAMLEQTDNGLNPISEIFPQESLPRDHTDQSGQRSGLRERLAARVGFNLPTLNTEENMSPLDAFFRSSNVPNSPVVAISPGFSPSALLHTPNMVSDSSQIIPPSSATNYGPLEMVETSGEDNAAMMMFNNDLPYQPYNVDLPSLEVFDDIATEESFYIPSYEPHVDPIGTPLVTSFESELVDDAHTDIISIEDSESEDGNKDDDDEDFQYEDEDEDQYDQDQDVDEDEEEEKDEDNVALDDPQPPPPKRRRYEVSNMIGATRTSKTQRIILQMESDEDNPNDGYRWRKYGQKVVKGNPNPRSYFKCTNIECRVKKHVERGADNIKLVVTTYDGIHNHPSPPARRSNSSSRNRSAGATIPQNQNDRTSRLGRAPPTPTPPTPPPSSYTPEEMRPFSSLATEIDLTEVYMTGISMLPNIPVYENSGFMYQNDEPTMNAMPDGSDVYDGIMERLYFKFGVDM
LHY:MBP [4] = biological target: T4, LHY:MBP (Arabidopsis thaliana, UniProt Q6R0H1 1-645); assay: EMSA
T4 sequence: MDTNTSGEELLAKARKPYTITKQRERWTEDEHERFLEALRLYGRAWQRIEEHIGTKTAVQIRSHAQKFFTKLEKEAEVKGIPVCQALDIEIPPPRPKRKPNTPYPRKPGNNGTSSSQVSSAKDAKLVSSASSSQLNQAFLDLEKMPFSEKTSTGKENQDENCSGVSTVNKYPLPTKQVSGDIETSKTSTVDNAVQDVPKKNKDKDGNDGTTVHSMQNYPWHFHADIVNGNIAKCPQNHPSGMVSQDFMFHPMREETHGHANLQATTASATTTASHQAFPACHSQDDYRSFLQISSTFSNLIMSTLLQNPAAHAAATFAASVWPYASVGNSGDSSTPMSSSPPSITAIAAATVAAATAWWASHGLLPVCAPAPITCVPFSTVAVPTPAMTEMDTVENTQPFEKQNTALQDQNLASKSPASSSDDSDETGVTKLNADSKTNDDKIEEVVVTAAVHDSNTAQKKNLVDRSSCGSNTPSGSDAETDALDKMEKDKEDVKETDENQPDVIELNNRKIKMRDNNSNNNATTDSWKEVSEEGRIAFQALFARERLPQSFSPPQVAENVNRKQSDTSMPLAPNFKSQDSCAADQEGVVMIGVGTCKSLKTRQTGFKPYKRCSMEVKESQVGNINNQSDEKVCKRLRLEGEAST

CCA1:MBP [5] = biological target: T3, CCA1:MBP; assay: competition
LHY:MBP [6] = biological target: T4, LHY:MBP; assay: competition
WRKY2:HIS [7] = biological target: T1, WRKY2:HIS; assay: competition
WRKY10:MYC [8] = biological target: T2, WRKY10:MYC; assay: competition

T2 sequence (Q9LG05 whole entry): as the sequence (Q9LG05 whole entry, one chain of several) above
T1 sequence (Q9FG77 whole entry): as the sequence (Q9FG77 whole entry, one chain of several) above
T3 sequence (P92973 whole entry): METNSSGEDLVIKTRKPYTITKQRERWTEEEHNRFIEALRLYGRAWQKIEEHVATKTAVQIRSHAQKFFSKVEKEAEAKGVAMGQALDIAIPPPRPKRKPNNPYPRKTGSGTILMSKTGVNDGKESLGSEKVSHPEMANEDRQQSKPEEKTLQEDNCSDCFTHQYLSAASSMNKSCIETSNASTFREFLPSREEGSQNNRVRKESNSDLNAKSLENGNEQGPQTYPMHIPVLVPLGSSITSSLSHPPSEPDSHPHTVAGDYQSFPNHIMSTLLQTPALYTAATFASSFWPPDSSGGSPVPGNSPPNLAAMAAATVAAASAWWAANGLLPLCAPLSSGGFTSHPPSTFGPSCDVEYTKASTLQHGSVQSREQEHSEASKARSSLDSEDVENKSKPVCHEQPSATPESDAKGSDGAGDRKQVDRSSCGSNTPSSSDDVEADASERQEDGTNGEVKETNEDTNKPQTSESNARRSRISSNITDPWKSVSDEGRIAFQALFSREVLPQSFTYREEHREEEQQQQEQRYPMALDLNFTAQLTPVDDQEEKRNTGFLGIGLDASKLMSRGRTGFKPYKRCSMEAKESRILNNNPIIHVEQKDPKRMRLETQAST

B1: PIF4 W1-box probe (4W1) (dsDNA)
DNA 1: CTATAGATGATTGTGATTTGACAAAAACACCCTCAAATCA
DNA 2: TGATTTGAGGGTGTTTTTGTCAAATCACAATCATCTATAG
Question: Does B1 bind (WRKY2:HIS [1])?
Answer: binds

Question: Does B1 bind (WRKY10:MYC [2])?
Answer: binds

B2: PIF4 M1-box probe (4M1) (dsDNA)
DNA 1: ATCTCCCTCGCTGTAATATCTTTATGCTCCTGTCACT
DNA 2: AGTGACAGGAGCATAAAGATATTACAGCGAGGGAGAT
Question: Does B2 bind (CCA1:MBP [3])?
Answer: binds

Question: Does B2 bind (LHY:MBP;WRKY2:HIS)?
Answer: binds

Question: Does B2 bind (LHY:MBP;WRKY10:MYC)?
Answer: binds

Question: Does B2 bind (LHY:MBP [4])?
Answer: binds

B3: PIF4 M1-box mutant competitor (4M1 mut) (dsDNA)
DNA 1: B2 DNA 1 with A18T, T19G
DNA 2: B2 DNA 2 with A19C, T20A
Question: Does B3 bind (CCA1:MBP [5])?
Answer: no binding

Question: Does B3 bind (LHY:MBP [6])?
Answer: no binding

B4: PIF4 W1-box mutant competitor (4W1 mut) (dsDNA)
DNA 1: CTATAGATGATTGTGATGGTGTGAAAACACCCTCAAATCA
DNA 2: TGATTTGAGGGTGTTTTCACACCATCACAATCATCTATAG
Question: Does B4 bind (WRKY2:HIS [7])?
Answer: no binding

Question: Does B4 bind (WRKY10:MYC [8])?
Answer: no binding
